In US20130108641A1 (Sanofi, published 2013):

T1: human GITR protein (form not stated) (human, UniProt Q9Y5U5 26-161, limits assumed)
T1 construct: also called hGITR
T1 sequence (looked up): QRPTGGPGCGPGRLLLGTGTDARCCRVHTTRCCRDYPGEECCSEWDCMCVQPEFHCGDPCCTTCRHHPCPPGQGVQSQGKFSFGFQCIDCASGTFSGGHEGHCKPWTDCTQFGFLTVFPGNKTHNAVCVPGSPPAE

T2: human GITR expressed on cells (human, UniProt Q9Y5U5 26-241)
T2 construct: whole, on cells; Used for HEK293 transfectants and for PHA-stimulated human PBMCs; also called hGITR; cell surface hGITR
T2 sequence (looked up): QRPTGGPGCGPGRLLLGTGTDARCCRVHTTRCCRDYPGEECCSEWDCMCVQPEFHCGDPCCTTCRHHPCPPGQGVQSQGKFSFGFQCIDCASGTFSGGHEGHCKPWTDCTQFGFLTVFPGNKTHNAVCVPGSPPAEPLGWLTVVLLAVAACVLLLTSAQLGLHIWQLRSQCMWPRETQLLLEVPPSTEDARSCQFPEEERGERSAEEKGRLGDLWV

T3: human GITR-Fc fusion protein (human, UniProt Q9Y5U5 26-162)
T3 construct: extracellular domain; also called hGITR-Fc; recombinant human GITR-Fc; not shown: Fc part
T3 sequence (looked up): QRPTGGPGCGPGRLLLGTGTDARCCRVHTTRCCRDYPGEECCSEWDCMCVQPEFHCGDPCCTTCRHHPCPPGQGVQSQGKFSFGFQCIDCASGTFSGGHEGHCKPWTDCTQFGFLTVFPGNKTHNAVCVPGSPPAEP

B1: chimeric 2155 antibody (antibody, V domains shown)
VH: EVKLVESGGGLVKPGGSLKLSCGASGFTISSYAMSWVRQSPEKRLEWVAIISTGGSTYYPDSVRGRFTISRDNARNSLYLQMSSLRSEDTAMYYCARVGGYYDSMDHWGQGTSVTVSS
VL: not shown
B2: humanized anti-GITR antibody 2155 variant HC4-LC3 (antibody, V domains shown)
VH: EVQLVESGGGLIQPGGSLKLSCAASGFTISSYAMSWVRQAPGKGLEWVAIISTGGSTYYADSVKGRFTISRDNSKNTLYLQMNSLRAEDTAVYYCARVGGYYDSMDHWGQGTSVT
VL: DIVLTQSPASLAVSPGQRATITCRASETVDNYGISFMNWFQQKPGQPPKLLIYAASNQGSGVPARFSGSGSGTDFTLTINPVEADDTANYYCQQSKEVPWTFGQGTKVE
notes: also called LC3 and HC4
B3: humanized anti-GITR antibody 2155 variant HC2-LC1 (antibody, V domains shown)
VH: QVTLVESGGGLVKPGGSLTLSCGASGFTISSYAMSWVRQSPGKALEWVAIISTGGSTYYPDSVRGRFTISRDNAKNSLYLTMSSLDSVDTATYYCARVGGYYDSMDHWGQGTSVT
VL: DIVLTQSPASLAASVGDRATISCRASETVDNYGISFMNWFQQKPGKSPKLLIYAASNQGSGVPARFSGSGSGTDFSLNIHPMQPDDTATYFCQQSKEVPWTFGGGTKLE
notes: also called LC1 and HC2
B4: humanized anti-GITR antibody 2155 variant HC3b-LC2a (antibody, V domains shown)
VH: QVTLKESGGGLVKPGGSLTLSCGASGFTISSYAMSWVRQSPGKALEWVAIISTGGSTYYPDKFRGRFTISRDNAKNSLYLTMSSLRSEDTATYYCARVGGYYDSMDHWGQGTSVT
VL: DIVLTQSPASLSASVGDRATISCRASETVDNYGISFMNWFQQKPGQSPKLLIYAASNQGSGVPARFSGSGSGTDFSLTISPMQPDDTATYYCQQSKEVPWTFGGGTKLE
notes: also called LC2a and HC3b
B5: humanized anti-GITR antibody 2155 variant HC1-LC1 (antibody, V domains shown)
VH: QVTLVESGGGLVKPGGSLTLSCGASGFTISSYAMSWVRQSPGKALEWVAIISTGGSTYYPDSVRGRFTISRDNAKNSLYLTMSSLDSVDTAMYYCARVGGYYDSMDHWGQGTSVT
VL: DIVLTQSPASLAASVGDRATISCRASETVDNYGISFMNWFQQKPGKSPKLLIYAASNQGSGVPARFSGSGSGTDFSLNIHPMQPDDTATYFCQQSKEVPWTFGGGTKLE
notes: also called LC1 and HC1
B6: humanized anti-GITR antibody 2155 variant HC3a-LC2a (antibody, V domains shown)
VH: QVTLVESGGGLVKPGGSLTLSCGASGFTISSYAMSWVRQSPGKALEWVAIISTGGSTYYPDKFRGRFTISRDNAKNSLYLTMSSLRSEDTATYYCARVGGYYDSMDHWGQGTSVT
VL: DIVLTQSPASLSASVGDRATISCRASETVDNYGISFMNWFQQKPGQSPKLLIYAASNQGSGVPARFSGSGSGTDFSLTISPMQPDDTATYYCQQSKEVPWTFGGGTKLE
notes: also called LC2a and HC3a

Columns and labels:
[1] = target: T1, human GITR protein (form not stated); assay: ELISA, GITR protein coated
Method: Ninety-six well plates were coated with GITR protein at 0.25 μg/well at 4° C., overnight. Wells were washed with washing buffer (PBS pH 7.4+0.05 Tween 20) and blocked with 200 μL of blocking buffer (PBS pH 7.4+0.05% Tween 20+1% BSA) for 1 hour at room temperature. […] The plate was incubated at room temperature for 1 h and washed five times with PBS-T. Then, 100 μL of a 1:50 000 dilution of peroxidase-conjugated goat anti-human IgG-Fc (Sigma)) was added to each well. Following incubation at room temperature for 1 h in the dark, the plate was washed with PBS-T, five times. Antibody binding was visualized by adding 100 μL/well of TMB-H₂O₂ substrate buffer (Interchim) The reaction proceeded at room temperature for 10 min and was read using an ELISA plate reader at a wavelength of 450 nm.

[2] = target: T2, human GITR expressed on cells; assay: FACS (Guava) on HEK293-Trex-hGITR cells, Alexa 647 anti-human IgG-Fc detection; fitted half-maximal concentration in the legend box, unit from the x axis 'mAb concentrations (µg/mL)'
Method: (§1) Wells were washed 3 times with 200 μl/well of PBS+1% BSA by centrifugation at 350 g for 5 minutes. Then, 100 μL of a 1:400 dilution of Alexa 647-conjugated, anti-human IgG-Fc (Invitrogen) was added to each well. Following incubation at 4° C. for 45 minutes in the dark, the plate was washed with PBS-1% BSA three times. Cells were resuspended in 150 μL of PBS-1% BSA and analyzed using GUAVA instrument.

[3] = target: T2, human GITR expressed on cells; assay: FACS on HEK293-Trex-hGITR cells, Michaelis binding plot
Method: as §1

[4] = target: T3, human GITR-Fc fusion protein; assay: competition ELISA, GITRL coated, GITR 0.25 µg/mL pre-incubated with antibody
Method: Ninety-six well plates were coated with GITR-Ligand proteins at 0.5 μg/well at 4° C. overnight. Wells were washed with washing buffer (PBS pH 7.4+0.05 Tween 20) and blocked with 200 μL of blocking buffer (PBS pH 7.4+0.05% Tween 20+1% BSA) for 1 hour at room temperature. […] Plates were washed four times with washing buffer and GITR-Ligand-bound recombinant human GITR-Fc was detected with the use of peroxidase-conjugated goat, anti-human IgG-Fc (Sigma), followed by incubation with the TMB substrate (Interchim ref UP664780).

| Binder | EC50 [1] [nM] | EC50 [2] [mg/L] | Kd [3] [nM] | IC50 [4] [nM] |
| --- | --- | --- | --- | --- |
| B1 | 0.97 | 0.337 | 5.55 | 1.13 |
| B2 | 1.08 | 0.259 | 4.52 | 1.21 |
| B3 | 1.34 | 0.278 | 4.68 | 0.93 |
| B4 | 1.24 | 0.238 | 4.96 | 1.15 |
| B5 | 0.91 | 0.206 | 4.03 | 1.08 |
| B6 | 2.17 | 0.333 | 5.51 | 1.26 |
